Experimental data published in article PMC5551578 (The Journal of Experimental Medicine, 2017).
Positions count from the first letter of the chain named.

B1: H1-Ab41 (antibody, V domains shown)
VH: QVQLQESGGGVVQPERSLRLSCAASGFKFSSYAMHWVRQAPGKGLEWVAVFWSDGTTKYYANSVRGRFTVSRDNSKNMLYLQINSLRAEDTAVYYCARGFLLPYYGSSGYEYFFDFWGQGTTVTVSS
VL: AIGMTQSPESLAVSLGERATINCKSGQSILHSSNNKNYLAWYQQKPGQPPKLVIYWASTRESGVPDRFSGSGSETDFTLTISSLQAEDVAVYYCQQYYSTPSFGGGTKVEIK
notes: IgG1; source: HEK293T, transfected with heavy and light chain plasmids; purified mAbs
B2: H1-Ab32 (antibody, V domains shown)
VH: EVQLVESGGGLVQPGGSLRLSCAASSFTFSNYAMSWVRQAPGKGLEWVSLINSGGGDKYYADSVKGRFIVSRDNSKNALYLQMNSLRAEDTAVYFCARVVGRETFGLVIPIYYFDYWGQGDLVTVSS
VL: EIVLTQSPATLSLSPGERATLSCRASQSVSSFLAWYQQKPGQAPRLLIYDASNRATGVPARFSGSGSGTDFTLTISSLEPEDFAVYYCQQCSNWPPLTFGGGTKVEIK
notes: as for B1
B3: H1-Ab55 (antibody, V domains shown)
VH: EVQLVESGPGLVKPSETLSLTCTVSGGSISSDYWSWIRQAPGKGLEWLAYIHHNGRTNYNPSLGSRVAISIDTSRSQFSLKLGSVTAADTAVYYCARDQTGIRKSNAFDLWGQGTLVTVSS
VL: DIQLTQSPSSLSASVGDRVTITCRASQNIRSYLNWYQQKPGKAPKLLIYGVSTLQNGVPSRFSGSASGSDFTLTISSLQPEDFATYHCQQSYDTPQTFGPGTKVEIK
notes: as for B1
B4: H1-Ab59 (antibody, V domains shown)
VH: EVQLVESGPGLVKPSQTLSLTCTVSGGSVSSGGYSWTWIRQPAGKGLEWIGRIYFTGSTNYNPSLKSRITISVDTSKNQFSLRLSSVTAADTAVYYCAREDDFVWGSYRRFAYFDYWGQGTLVTVSS
VL: EIVMTQSPSSLSASVGDRVNITCQASQDISNYLNWYQQKPGEAPKLLIYGASSLQTGVPSRFSGSGSGTNFIFTISSLQPEDLATYYCQQYDNLPMYTFGQGTKVEIK
notes: as for B1
B5: H1-Ab56 (antibody, V domains shown)
VH: EVQLVQSGPGLVKPSETLSLTCTVSGGSISSDYWSWIRQPPGKGLEWIGYIHQNGRTNSNPSLRGRVSMLVDTSESQFSLKLGSVTAADTAVYYCARDQAGIRRSNAFDIWGQGTLVTVSS
VL: DIVMTQSPSSLSASVGDRVTITCRASQSISTYLNWYQQKPGKAPKLLIYAASTLQSGVPSRFSGSASGSEFTLTISSLQPEDFASYYCQQSYDIPQTFGPGTKVEIK
notes: as for B1
B6: H1-Ab30 (antibody, V domains shown)
VH: EVQLVQSGGGLVQPGGSLRLSCAASGFTFSSYAMSWVRQAPGKGLEWVSTISGSGISTYYADSVKGRFTISRDNSKNTLYLQMNSLRADDTAVYYCAKALATHIVMAGTLDFWGQGTLVTVSS
VL: EIVMTQSPATLSVSPEERATLSCRASQSVTNSLAWYQQKPGQAPRLLIYGASTRATGIPARFSGSGSGTEFTLTISSLQSEDFAVYYCQQYNNWPPLTFGGGTKVEIK
notes: as for B1
B7: H1-Ab43 (antibody, V domains shown)
VH: EVQLVESGGNLVQPGGSLTLSCAVSGFAFSNFEANWVRQAPGKGLEWVSYISKSGLTKYYSDSVKGRFTISRDNAKSSLYLQMNSLRAEDTAVYYCVSPIPVAGTMEIYWGQGTLVTVSS
VL: B6 VL with E1D, V3Q, S14F, E16G, V29I, T30R, N31S, S32D, A43P, G68E
notes: as for B1
B8: TT-Ab1 (antibody, V domains shown)
VH: QVQLQESGAEVKNLGASVKVSCKASGYIFTNYGITWVRQAPGQGLEWIGWTTIYNGNTNYARKLQGRVTMTTGTSTRTAYMELRSLKSDDTAMYYCARGLRHYHDGSPLEYWGQETTVTVSS
VL: DIVMTQSPGTLSLSPGERVTLSCRASQSVGSSYLAWYQQKPGQTPRLLVFGASSRATGIPDRFSGSGSGTDFTLTISRLEPEDFAVYYCQLYGNSLITFGQGTRLEIK

Experiments:
[1] = biological target: T1, H1N1 HA (A/California/04/2009) (Influenza A virus A/California/04/2009 …, UniProt C3W5S1, strain); experiment: SPR; conditions: both partners purified
T1 construct: source: bought: Sino Biological

[2] = biological target: tetanus toxoid (Clostridium tetani, production strain …, UniProt P04958)

Binder | Kd [1] [nM] | binding result [2]
B1 | 0.0819 | –
B2 | 0.56 | –
B3 | 0.467 | –
B4 | 14 | –
B5 | 0.372 | –
B6 | 0.066 | –
B7 | 0.155 | –
B8 | – | binds
